{
  "source": "patent US7396905B1",
  "about": "“Calcipressins: endogenous inhibitors of calcineurin, uses and reagents related thereto” (priority 1999, dated 2008)",
  "key": {"[1]": {"tested_on": "calcineurin-dependent nuclear import of NF-AT4", "test": "Calcineurin-dependent NF-AT4 nuclear import assay in BHK cells", "type": "cell-based, baby hamster", "details": "co-expressed with GFP-NF-AT4 in BHK cells; calcium ionophore", "experimental": "This assay monitors the subcellular location of GFP-tagged NF-AT4, a transcription factor that resides in the cytoplasm of unstimulated BHK cells. Following stimulation of BHK cells with ionomycin, a calcium ionophore, GFP-NF-AT4 translocates to the nucleus with a t1/2 of five minutes. This translocation event is accompanied by a dephosphorylation of NF-AT4 in a process dependent on calcineurin.\nBaby hamster kidney cells were grown on sterile glass coverslips in DMEM media with 10% fetal calf serum and transfected using calcium phosphate methods (Heald et al., 1993). […] NF-AT4 expression was based on the vector pcDNA3-GFP-NF-AT4 (Shibasaki et al., 1996). Transfected cells were grown for 18 hours prior to drug treatments. Cells were fixed 30 minutes after ionomycin (0.5 uM) treatment or washout using 3% formaldehyde in PBS for 10 minutes at room temperature."}, "[2]": {"tested_on": "calcineurin A and B subunits produced by in vitro translation", "test": "In vitro binding of GST fusion proteins to 35S-labelled calcineurin subunits", "details": "GST fusion proteins purified from E. coli", "experimental": "5A. […] Associated calcineurin subunits were detected and quantified by SDS-polyacrylamide gel electrophoresis and autoradiography. The same deletion mutants were co-expressed with GFP-NF-AT4 in BHK cells and assayed for their ability to block calcium ionophore-stimulated NF-AT4 nuclear import.\nPurified GsT-Csp1 and -Csp2 fusion proteins were mixed with calcineurin in vitro translation lysates in buffer A (50 mM Tris-HCl, pH7.5, 140 mM NaCl, 1 mM CaCl2, and 0.4% Triton X-100), incubated for 60 minutes at 4 degrees, and absorbed with glutathione-agarose beads. The agarose beads were washed three times with buffer A, resuspended in 2×SDS sample buffer, and fractionated on SDS-polyacrylamide gels. Dried gels were analyzed by the phosphoImager to detect and quantify GsT-Csp1 or -Csp2-associated calcineurin subunits."}},
  "data": [
    {"molecule": "Csp1 1-100: Csp1 lacking the C-terminal half (protein, left off: a dimerising Fc or GST, Csp1 lacking the C-terminal half) MEEVDLQDLPSATIACHLDPRVFVDGLCRAKFESLFRTYDKDTTFQYFKSFKRVRINFSNPLSAADARLRLHKTEFLGKEMKLYFAQTLHIGSSHLAPPN", "values": [
      {"measurement": "inhibition of NF-AT4 nuclear import stimulated by calcium ionophore", "setting": "[1]", "result": "fails to block calcium-activation NF-AT4 nuclear import"},
      {"measurement": "interaction with calcineurin in vitro", "setting": "[2]", "result": "no obvious interaction with calcineurin in vitro"}
    ]}
  ]
}
